{"source": "patent US6586252B2", "about": "“Nucleic acid molecule encoding the catalytic subunit of a protein phosphatase 2A that regulates flowering time in plants” (Korea Kumho Petrochemical Co., Ltd., priority 2001, dated 2003)", "molecules": {"B1": {"name": "PP2AC-JD: recombinant catalytic subunit of a pea protein phosphatase 2A (SEQ ID NO: 2), expressed in E. coli BL21 (protein)", "chain": "MDLDQWISKVKDGQHLLEDELQLLCEYVKEILIEESNVQPVNSPVTVCGDIHGQFHDLMKLFQTGGHVPETNYIFMGDFVDRGYNSLDVFTILLLLKARYPANITLLRGNHESRQLTQVYGFYDECQRKYGNANATRYCTDVFDYLTLSAIIDGTVLCVHGGLSPDIRTIDQIRVIERNCEIPHEGPFCDLMWSDPEDIETWAVSPRGAGWLFGSRVTSEFNHINNLDLVCRAHQLVQEGLKYMFQDKGLVTVWSAPNYCYRCGNVASILSFNENMEREVKFFTETEENNQMRGPRTGVPYFL"}}, "tested_on": "phosphorylated oat phytochrome A", "experiment": "Dephosphorylation of autophosphorylated oat phytochrome A by recombinant PP2AC-JD (SDS-PAGE, autoradiography)", "assay_type": "biochemical", "experimental": "The oat phytochrome A was first autophosphorylated in the presence of γ[32P]ATP under the light conditions indicated. The recombinant PP2AC-JD protein was expressed via the pGEX-4T-1 expression vector in E. coli strain BL21 as a GST fusion, and the GST tag domain was cleaved out by thrombin digestion. (A) Cation requirements for the PP2AC-JD activity. One μg of the phosphorylated phytoclirome A was incubated with 0.2 μg of the recombinant PP2AC-JD for 30 minutes at room temperature, analysed on 12% SDS-PAGE, and subject to autoradiography. (B) Spectral form-dependent dephosphorylation of the phytochrome A. The Pfr form was a better substrate for the PP2AC-JD than the Pr form.\nThe enzymatic activity of the protein phosphatase encoded by said nucleic acid molecule can be assayed using a phosphorylated protein, preferentially autophosphorylated phytochromes. The reaction mixture is then analyzed on SDS-PAGE and visualized by autoradiography.\nThe PCR product containing the PP2AC-JD gene was double-digested with EcoRI and XhoI and incorporated into the pGEX-4T-1 E. coli expression vector, resulting in pG-PP2AC-JD. In this expression construct, the PP2AC-JD gene sequence was in frame fused to the glutathione S-transferase (GST) coding sequence at the N-terminus. The vector construct was transformed into E. coli strain BL21, and the transformants were selected with 100 μg/ml ampicillin. RB medium, rather than LB, was used for induction. Two hundred fifty ml of RB (0.5% yeast extract, 1% tryptone, 0.5% NaCl, 0.2% glucose, pH 7.5 with NaOH) supplemented with ampicillin (100 μg/ml) was inoculated with 3 ml of freshly grown cell culture and incubated at 20° C. with shaking at 250 rpm to an OD600 of 0.6. Expression was induced by adding IPTG (1 μM) and by further shaking at 20° C. for 5 hours. After centrifugation at 5000×g for 5 minutes, the cell pellet was washed in ice-cold 1×Phosphate-Buffered Saline (PBS, 140 mM NaCl, 2.7 mM KCI, 10 mM Na2HPO4, 1.8 mM KH2PO4, pH7.3). […]", "data": [{"molecule": "B1", "values": [{"measurement": "stimulatory effect of other cations on PP2AC-JD activity", "setting": "cations other than Fe2+ or Zn2+", "value": "did not show any significant stimulatory effects"}, {"measurement": "dephosphorylation of phosphorylated oat phytochrome A", "setting": "in the presence of Fe2+ or Zn2+, 1 μg phytochrome A, 0.2 μg PP2AC-JD, 30 minutes, room temperature", "value": "efficiently dephosphorylated"}, {"measurement": "dephosphorylation of Pfr phytochrome A compared with the Pr spectral form", "setting": "phytochrome A autophosphorylated under different light conditions", "value": "more efficiently dephosphorylated"}]}]}
